Laboratory results: the supplement of paper PMC7125110
± gives the standard error. This sample holds only a part of the variants without activity.

B1: glmS ribozyme (parent)
chain: AUAAAAGCGCCAGAACUACAGAAAUGUAGUUGACGAGGAGGAGGUUUAUCGAAUUUUCGGCGGAUGCCUCCAAA

Key:
Conditions in all cases: with glucosamine-6-phosphate
[1] = variants of: B1; assay: self-cleavage kobs at 40 uM GlcN6P; higher = faster cleavage; RNA array
How it was run: (§1)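 A hybridised Cy3 probe tracked barcoded ribozyme variants, transcribed in situ by E. coli RNA polymerase on sequenced MiSeq chips, at 37 °C. The variants received 40 μM to 10 mM glucosamine-6-phosphate in HEPES/KCl/Mg(OAc)2 buffer. kobs came from decay fits and kcat and KM from weighted Michaelis–Menten fits.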

[2] = variants of: B1; assay: self-cleavage kobs at 160 uM GlcN6P; higher = faster cleavage; RNA array
How it was run: as §1

[3] = variants of: B1; assay: self-cleavage kobs at 10000 uM GlcN6P; higher = faster cleavage; RNA array
How it was run: as §1

[4] = variants of: B1; assay: self-cleavage kobs at 2500 uM GlcN6P; higher = faster cleavage; RNA array
How it was run: as §1

[5] = variants of: B1; assay: self-cleavage kobs at 640 uM GlcN6P; higher = faster cleavage; RNA array
How it was run: as §1

A15G C16U A52U U57A G59U
self-cleavage kobs at 40 uM GlcN6P [1]: < 1e-05 s⁻¹ | self-cleavage kobs at 160 uM GlcN6P [2]: < 1e-05 s⁻¹ | self-cleavage kobs at 10000 uM GlcN6P [3]: < 1e-05 s⁻¹

G29C G32C U57G
self-cleavage kobs at 40 uM GlcN6P [1]: < 1e-05 s⁻¹

A14C G29A A33U
self-cleavage kobs at 40 uM GlcN6P [1]: < 1e-05 s⁻¹ | self-cleavage kobs at 160 uM GlcN6P [2]: < 1e-05 s⁻¹ | self-cleavage kobs at 2500 uM GlcN6P [4]: < 1e-05 s⁻¹

A15C A36U
self-cleavage kobs at 40 uM GlcN6P [1]: < 1e-05 s⁻¹ | self-cleavage kobs at 10000 uM GlcN6P [3]: < 1e-05 s⁻¹

G29A G38U A39G C58A G66A
self-cleavage kobs at 40 uM GlcN6P [1]: < 1e-05 s⁻¹

U31C C50G C70U
self-cleavage kobs at 40 uM GlcN6P [1]: 7.5e-05 ± 2.8e-05 s⁻¹ | self-cleavage kobs at 160 uM GlcN6P [2]: 7.9e-05 ± 1.5e-05 s⁻¹ | self-cleavage kobs at 640 uM GlcN6P [5]: 7.86e-05 ± 1.6e-05 s⁻¹ | self-cleavage kobs at 2500 uM GlcN6P [4]: 4.19e-05 ± 1.2e-05 s⁻¹ | self-cleavage kobs at 10000 uM GlcN6P [3]: 4.29e-05 ± 1.3e-05 s⁻¹

C16A G37U G38A U45A U55G
self-cleavage kobs at 40 uM GlcN6P [1]: < 1e-05 s⁻¹ | self-cleavage kobs at 10000 uM GlcN6P [3]: < 1e-05 s⁻¹

A15C G37C G40A G43U
self-cleavage kobs at 40 uM GlcN6P [1]: < 1e-05 s⁻¹ | self-cleavage kobs at 10000 uM GlcN6P [3]: < 1e-05 s⁻¹

G13C U45C
self-cleavage kobs at 40 uM GlcN6P [1]: < 1e-05 s⁻¹ | self-cleavage kobs at 160 uM GlcN6P [2]: < 1e-05 s⁻¹ | self-cleavage kobs at 640 uM GlcN6P [5]: < 1e-05 s⁻¹ | self-cleavage kobs at 2500 uM GlcN6P [4]: < 1e-05 s⁻¹

A15C G44U C61G C67G
self-cleavage kobs at 40 uM GlcN6P [1]: < 1e-05 s⁻¹ | self-cleavage kobs at 640 uM GlcN6P [5]: < 1e-05 s⁻¹ | self-cleavage kobs at 2500 uM GlcN6P [4]: < 1e-05 s⁻¹ | self-cleavage kobs at 10000 uM GlcN6P [3]: < 1e-05 s⁻¹

G32A C34U C50U C61A G66A
self-cleavage kobs at 40 uM GlcN6P [1]: 4.94e-05 ± 2.4e-05 s⁻¹

G13C A39G A64U
self-cleavage kobs at 40 uM GlcN6P [1]: < 1e-05 s⁻¹ | self-cleavage kobs at 2500 uM GlcN6P [4]: < 1e-05 s⁻¹

A14C G43C
self-cleavage kobs at 40 uM GlcN6P [1]: < 1e-05 s⁻¹ | self-cleavage kobs at 640 uM GlcN6P [5]: < 1e-05 s⁻¹ | self-cleavage kobs at 2500 uM GlcN6P [4]: < 1e-05 s⁻¹

U31G C68A
self-cleavage kobs at 40 uM GlcN6P [1]: < 1e-05 s⁻¹ | self-cleavage kobs at 640 uM GlcN6P [5]: 3.5e-05 ± 1.6e-05 s⁻¹ | self-cleavage kobs at 2500 uM GlcN6P [4]: 8.49e-05 ± 1.9e-05 s⁻¹

A14U U55G C58U G66U C67G
self-cleavage kobs at 40 uM GlcN6P [1]: 0.00272 ± 0.001 s⁻¹

C16A G60U
self-cleavage kobs at 40 uM GlcN6P [1]: < 1e-05 s⁻¹ | self-cleavage kobs at 160 uM GlcN6P [2]: < 1e-05 s⁻¹ | self-cleavage kobs at 640 uM GlcN6P [5]: < 1e-05 s⁻¹ | self-cleavage kobs at 2500 uM GlcN6P [4]: < 1e-05 s⁻¹ | self-cleavage kobs at 10000 uM GlcN6P [3]: < 1e-05 s⁻¹

C16A A42U G63U
self-cleavage kobs at 40 uM GlcN6P [1]: < 1e-05 s⁻¹ | self-cleavage kobs at 640 uM GlcN6P [5]: < 1e-05 s⁻¹ | self-cleavage kobs at 2500 uM GlcN6P [4]: < 1e-05 s⁻¹

U30C A36C U69G
self-cleavage kobs at 40 uM GlcN6P [1]: 0.000181 ± 7.1e-05 s⁻¹ | self-cleavage kobs at 640 uM GlcN6P [5]: 0.000264 ± 0.00013 s⁻¹

A14U G41C C70G
self-cleavage kobs at 40 uM GlcN6P [1]: 0.000998 ± 0.00029 s⁻¹ | self-cleavage kobs at 160 uM GlcN6P [2]: 0.00172 ± 0.00056 s⁻¹ | self-cleavage kobs at 640 uM GlcN6P [5]: 0.00931 ± 0.0023 s⁻¹ | self-cleavage kobs at 2500 uM GlcN6P [4]: 0.0459 ± 0.018 s⁻¹ | self-cleavage kobs at 10000 uM GlcN6P [3]: 0.0658 ± 0.026 s⁻¹

A24C A48C G62U G63U C70G
self-cleavage kobs at 40 uM GlcN6P [1]: < 1e-05 s⁻¹ | self-cleavage kobs at 10000 uM GlcN6P [3]: < 1e-05 s⁻¹

U31A G43U
self-cleavage kobs at 40 uM GlcN6P [1]: < 1e-05 s⁻¹ | self-cleavage kobs at 160 uM GlcN6P [2]: < 1e-05 s⁻¹

C19A G43U
self-cleavage kobs at 40 uM GlcN6P [1]: < 1e-05 s⁻¹ | self-cleavage kobs at 640 uM GlcN6P [5]: < 1e-05 s⁻¹

U31G C71A
self-cleavage kobs at 40 uM GlcN6P [1]: 0.000103 ± 1.4e-05 s⁻¹ | self-cleavage kobs at 160 uM GlcN6P [2]: 0.000505 ± 0.00012 s⁻¹ | self-cleavage kobs at 640 uM GlcN6P [5]: 0.000376 ± 8.1e-05 s⁻¹ | self-cleavage kobs at 2500 uM GlcN6P [4]: 0.000715 ± 0.00018 s⁻¹ | self-cleavage kobs at 10000 uM GlcN6P [3]: 0.00392 ± 0.00068 s⁻¹

U30C A64C
self-cleavage kobs at 40 uM GlcN6P [1]: < 1e-05 s⁻¹ | self-cleavage kobs at 640 uM GlcN6P [5]: < 1e-05 s⁻¹ | self-cleavage kobs at 10000 uM GlcN6P [3]: < 1e-05 s⁻¹

U30G A52C
self-cleavage kobs at 40 uM GlcN6P [1]: < 1e-05 s⁻¹ | self-cleavage kobs at 160 uM GlcN6P [2]: < 1e-05 s⁻¹ | self-cleavage kobs at 640 uM GlcN6P [5]: < 1e-05 s⁻¹ | self-cleavage kobs at 2500 uM GlcN6P [4]: < 1e-05 s⁻¹

A15C G35A
self-cleavage kobs at 40 uM GlcN6P [1]: < 1e-05 s⁻¹ | self-cleavage kobs at 160 uM GlcN6P [2]: < 1e-05 s⁻¹ | self-cleavage kobs at 640 uM GlcN6P [5]: < 1e-05 s⁻¹ | self-cleavage kobs at 2500 uM GlcN6P [4]: < 1e-05 s⁻¹ | self-cleavage kobs at 10000 uM GlcN6P [3]: < 1e-05 s⁻¹

A14G C34U C68G
self-cleavage kobs at 40 uM GlcN6P [1]: 0.000349 ± 0.00016 s⁻¹ | self-cleavage kobs at 10000 uM GlcN6P [3]: 5.07e-05 ± 2e-05 s⁻¹

A15U U30C G51C
self-cleavage kobs at 40 uM GlcN6P [1]: < 1e-05 s⁻¹

U31G G38U C61U C71U
self-cleavage kobs at 40 uM GlcN6P [1]: < 1e-05 s⁻¹

U31C A48U C50A A53C U65G G66A
self-cleavage kobs at 40 uM GlcN6P [1]: < 1e-05 s⁻¹ | self-cleavage kobs at 2500 uM GlcN6P [4]: < 1e-05 s⁻¹ | self-cleavage kobs at 10000 uM GlcN6P [3]: < 1e-05 s⁻¹

A14G C34U C50G C68G
self-cleavage kobs at 40 uM GlcN6P [1]: 7.72e-05 ± 1.6e-05 s⁻¹

A15G U30G A33G A48C
self-cleavage kobs at 40 uM GlcN6P [1]: < 1e-05 s⁻¹

U30C G40C U49G G51A
self-cleavage kobs at 40 uM GlcN6P [1]: < 1e-05 s⁻¹ | self-cleavage kobs at 10000 uM GlcN6P [3]: < 1e-05 s⁻¹

A14U G37U G59U C61A
self-cleavage kobs at 40 uM GlcN6P [1]: < 1e-05 s⁻¹

A14G G32C U49A
self-cleavage kobs at 40 uM GlcN6P [1]: < 1e-05 s⁻¹ | self-cleavage kobs at 10000 uM GlcN6P [3]: < 1e-05 s⁻¹

U31A G51A U56A C58U G63U U65G
self-cleavage kobs at 40 uM GlcN6P [1]: < 1e-05 s⁻¹

G29U U54G C58U U69G
self-cleavage kobs at 40 uM GlcN6P [1]: 6.42e-05 ± 2.3e-05 s⁻¹

A15C A39G
self-cleavage kobs at 40 uM GlcN6P [1]: 0.000398 ± 9.2e-05 s⁻¹ | self-cleavage kobs at 640 uM GlcN6P [5]: 0.00224 ± 0.00049 s⁻¹ | self-cleavage kobs at 2500 uM GlcN6P [4]: 0.00476 ± 0.0014 s⁻¹ | self-cleavage kobs at 10000 uM GlcN6P [3]: 0.013 ± 0.0025 s⁻¹

U30G G41U C68A
self-cleavage kobs at 40 uM GlcN6P [1]: < 1e-05 s⁻¹ | self-cleavage kobs at 10000 uM GlcN6P [3]: < 1e-05 s⁻¹

C16G G59C
self-cleavage kobs at 40 uM GlcN6P [1]: < 1e-05 s⁻¹ | self-cleavage kobs at 160 uM GlcN6P [2]: < 1e-05 s⁻¹ | self-cleavage kobs at 640 uM GlcN6P [5]: < 1e-05 s⁻¹ | self-cleavage kobs at 2500 uM GlcN6P [4]: < 1e-05 s⁻¹ | self-cleavage kobs at 10000 uM GlcN6P [3]: < 1e-05 s⁻¹

G29U U30C
self-cleavage kobs at 40 uM GlcN6P [1]: < 1e-05 s⁻¹ | self-cleavage kobs at 640 uM GlcN6P [5]: < 1e-05 s⁻¹ | self-cleavage kobs at 2500 uM GlcN6P [4]: < 1e-05 s⁻¹

U30C A52C A64C
self-cleavage kobs at 40 uM GlcN6P [1]: < 1e-05 s⁻¹

C16G A53G C67A
self-cleavage kobs at 40 uM GlcN6P [1]: 2.96e-05 ± 1.3e-05 s⁻¹ | self-cleavage kobs at 10000 uM GlcN6P [3]: 0.000212 ± 5.9e-05 s⁻¹

A15U G38A U56C
self-cleavage kobs at 40 uM GlcN6P [1]: < 1e-05 s⁻¹

U30C U57C
self-cleavage kobs at 40 uM GlcN6P [1]: < 1e-05 s⁻¹ | self-cleavage kobs at 640 uM GlcN6P [5]: < 1e-05 s⁻¹

U30A A39G
self-cleavage kobs at 40 uM GlcN6P [1]: 0.000182 ± 2.7e-05 s⁻¹ | self-cleavage kobs at 160 uM GlcN6P [2]: 0.000615 ± 0.00023 s⁻¹ | self-cleavage kobs at 640 uM GlcN6P [5]: 0.00306 ± 0.0014 s⁻¹ | self-cleavage kobs at 10000 uM GlcN6P [3]: 0.0319 ± 0.014 s⁻¹

C16G C34U G59A G60U
self-cleavage kobs at 40 uM GlcN6P [1]: < 1e-05 s⁻¹

U31G G35U
self-cleavage kobs at 40 uM GlcN6P [1]: < 1e-05 s⁻¹ | self-cleavage kobs at 160 uM GlcN6P [2]: < 1e-05 s⁻¹ | self-cleavage kobs at 640 uM GlcN6P [5]: < 1e-05 s⁻¹ | self-cleavage kobs at 2500 uM GlcN6P [4]: < 1e-05 s⁻¹ | self-cleavage kobs at 10000 uM GlcN6P [3]: < 1e-05 s⁻¹

G29C C34A
self-cleavage kobs at 40 uM GlcN6P [1]: < 1e-05 s⁻¹ | self-cleavage kobs at 160 uM GlcN6P [2]: < 1e-05 s⁻¹ | self-cleavage kobs at 640 uM GlcN6P [5]: < 1e-05 s⁻¹ | self-cleavage kobs at 2500 uM GlcN6P [4]: < 1e-05 s⁻¹ | self-cleavage kobs at 10000 uM GlcN6P [3]: < 1e-05 s⁻¹
